According to article doi:10.1101/2025.06.10.658980, “Structures reveal how the Cas1-2/3 integrase captures, delivers, and integrates foreign DNA into CRISPR loci” (bioRxiv, 2025):

B1: Cas1 (type I-F, Pseudomonas aeruginosa PA14), StrepII-tagged (enzyme)
chain: MDDISPSELKTILHSKRANLYYLQHCRVLVNGGRVEYVTDEGRHSHYWNIPIANTTSLLLGTGTSITQAAMRELARAGVLVGFCGGGGTPLFSANEVDVEVSWLTPQSEYRPTEYLQRWVGFWFDEEKRLVAARHFQRARLERIRHSWLEDRVLRDAGFAVDATALAVAVEDSARALEQAPNHEHLLTEEARLSKRLFKLAAQATRYGEFVRAKRGSGGDPANRFLDHGNYLAYGLAATATWVLGIPHGLAVLHGKTRRGGLVFDVADLIKDSLILPQAFLSAMRGDEEQDFRQACLDNLSRAQALDFMIDTLKDVAQRSTVSA
notes: Four Cas1 subunits (two homodimers) stand in the Cas1-2/3 heterohexamer; also called StrepII-tagged Cas1; Cas1a; source: E. coli BL21(DE3), co-expressed with Cas2/3 from a single plasmid; in lysate, and purified (StrepTrap HP, Superdex 200); not shown: StrepII, N-terminal, kept

Legend:
[1] = molecular target: the molecule itself; assay: cryo-EM structure; Cas1-2/3 capture complex without nucleic acid, 12.8 uM, 3.3 Å
[2] = molecular target: B1; assay: SEC; affinity-purified Cas1-2/3 on Superdex 200 in 10 mM HEPES pH 7.5, 500 mM potassium glutamate, 10% glycerol; single peak, estimated ~380 kDa; details: both partners purified

Binder | stoichiometry N [1] | stoichiometry N [2]
B1 | 2 | 
Cas2/3 fusion protein (type I-F, Pseudomonas aeruginosa PA14), untagged (enzyme, Two Cas2/3 subunits stand in the Cas1-2/3 heterohexamer, joined through the Cas2 homodimer; also called Cas3; Cas3a; source: E. coli BL21(DE3), co-expressed with StrepII-Cas1 from a single plasmid; in lysate, and purified with Cas1 (StrepTrap HP, Superdex 200)) MNILLVSQCEKRALSETRRILDQFAERRGERTWQTPITQAGLDTLRRLLKKSARRNTAVACHWIRGRDHSELLWIVGDASRFNAQGAVPTNRTCRDILRKEDENDWHSAEDIRLLTVMAALFHDIGKASQAFQAKLRNRGKPMADAYRHEWVSLRLFEAFVGPGSSDEDWLRRLADKRETGDAWLSQLARDDRQSAPPGPFQKSRLPPLAQAVGWLIVSHHRLPNGDHRGSASLARLPAPIQSQWCGARDADAKEKAACWQFPHGLPFASAHWRARTALCAQSMLERPGLLARGPALLHDSYVMHVSRLILMLADHHYSSLPADSRLGDPNFPLHANTDRDSGKLKQRLDEHLLGVALHSRKLAGTLPRLERQLPRLARHKGFTRRVEQPRFRWQDKAYDCAMACREQAMEHGFFGLNLASTGCGKTLANGRILYALADPQRGARFSIALGLRSLTLQTGQAYRERLGLGDDDLAILVGGSAARELFEKQQERLERSGSESAQELLAENSHVHFAGTLEDGPLREWLGRNSAGNRLLQAPILACTIDHLMPASESLRGGHQIAPLLRLMTSDLVLDEVDDFDIDDLPALSRLVHWAGLFGSRVLLSSATLPPALVQGLFEAYRSGREIFQRHRGAPGRATEIRCAWFDEFSSQSSAHGAVTSFSEAHATFVAQRLAKLEQLPPRRQAQLCTVHAAGEARPALCRELAGQMNTWMADLHRCHHTEHQGRRISFGLLRLANIEPLIELAQAILAQGAPEGLHVHLCVYHSRHPLLVRSAIERQLDELLKRSDDDAAALFARPTLAKALQASTERDHLFVVLASPVAEVGRDHDYDWAIVEPSSMRSIIQLAGRIRRHRSGFSGEANLYLLSRNIRSLEGQNPAFQRPGFETPDFPLDSHDLHDLLDPALLARIDASPRIVEPFPLFPRSRLVDLEHRRLRALMLADDPPSSLLGVPLWWQTPASLSGALQTSQPFRAGAKERCYALLPDEDDEERLHFSRYEEGTWSNQDNLLRNLDLTYGPRIQTWGTVNYREELVAMAGREDLDLRQCAMRYGEVRLRENTQGWSYHPYLGFKKYN | 2 | 2 Cas1 per Cas2/3 (4:2)
